The text below walks through data of publication doi:10.1101/2025.10.27.684718.

This experiment addresses hsKir6.2 (Q52E) subunit of the cryo-EM KATP construct (human) (UniProt Q14654). The experiment can be described thus: cryo-EM structure.

Turning to “hsKir6.2 (Q52E) subunit of the cryo-EM KATP construct (from UniProt Q14654 2-390) (natural protein)”, the stoichiometry N worked out at 4.

By stoichiometry N is commonly meant the number of molecules, sites or subunits per partner or assembly.
